This sample holds only a part of the variants without activity.
B1: TPR 5TU (parent)
chain: GGAUCUUCUCGAUCUAACAAAAAAGACAAAUCUGCCACAAAGCUUGAGAGCAUCUUCGGAUGCAGAGGCGGCAGCCUUCGGUGGCGCGAUAGCGCCAACGUUCUCAACUAUGACACGCAAAACGCGUGCUCCGUUGAAUGGAGUUUAUCAUG

Variants of: B1
Assay: polymerase ribozyme fitness, log enrichment relative to wild type (log ratio); higher = more active; in vitro selection for triplet polymerase activity
Method in brief: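 Genotype fitness is the logarithm of its enrichment divided by wild-type enrichment, using inverse-variance-weighted averages of replicates. That logarithm is base 2. Enrichment was measured by Illumina sequencing of input and output libraries from one triplicate in vitro selection round, with frozen incubation at −7 °C, on PCR-built, transcribed mutant libraries of each subunit of a heterodimeric triplet polymerase ribozyme, retaining genotypes with ≥10 input reads and ≥1 read per output.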

Polymerase ribozyme fitness (log ratio), -2.52:
GGAUCUUCUCGAUCUAACAAAAAAGUCAAAUCUGCCACAAAGCUUGAGAGCAUCUUCGUAUGCAGAGGGGGCAGCCUUCGGUGGCGCGAUAGCGCCAACGUUCUCAACUAUGACACGCAAAACGCGUGCUCCGUUGAAUGGGGUUUAUCAUG

Polymerase ribozyme fitness (log ratio), -1.36:
GGAUCUUCUCGAUCUAACAAAAAAGUCAAAUCUGCCACAAAGCUUGAGAGCAUCGUCGGAUGCAGAGGCGGCAGCCUUCGGUGGCGCGAUAGCGCCAACGUUCUCAACUAUGACACGCAAAACGCGUGCUCCGUUGAAUGGAGUUUAUCAUG

Polymerase ribozyme fitness (log ratio), -3.43:
GGAUCUUCUCGAUCUAACAAAAAAGAAAAAUCUGCCACAAAGCUUGAGAGCAUCUUCGGAUGCAGAGGCGGCAGCCUUCGGUGGUGCGAUAGCGCCAACGUUCUCAACUAUGACACGCAAAACGCGUGCUCCGUUGAAUGGAGUUUAUCAUG

Polymerase ribozyme fitness (log ratio), -2.66:
GGAUCUUCUCGAUCUAACAAAAAAGUCAAAUCUGCCACAAAGCUUGAGAGCAUCUUCGGAUGCAGAGGCGGCAGCCUUCGGUGGCGCGAUAUCGCCAACGUUCUCAACUAUGACACGCAAAACGCGUGCUCCGUUGAAUGGAGUUUAUCAUG

Polymerase ribozyme fitness (log ratio), -2.3:
GGAUCUUCUCGAUCUAACAAAAAAGUCAAAUCUGCCACAAAGCUUGAGAGCAUCUUCGGAUGCAGAGGCGGCAGCCUUCAGUGGCGCGAUAGCGCCAACGUUCUCAACUAUGACACGCAAAACGCGUGCUCCGUUGAAUGGAGUUUAUCAUG

Polymerase ribozyme fitness (log ratio), -3.78:
GGAUCUUCUCGAUCUAACAAAAAAGUCAAAUCUGCCACAAAGCUUGAGAGCAUCUUCGGAUGCAGAGGCGGCAGCCUUCGGUGGCGCGAUAGCGCCAACGUUCUCAACUAUGACACGCAAAACGCGUGCUCCGUUGAAUGUAGGUUAUCAUG

Polymerase ribozyme fitness (log ratio), ≤ -4.2:
GGAUCUUCUCGAUCUAACAAAAAAGUCAAAUCUGCCACAAAGCUAGCGAGCAUCUUCGGAGGCAGAGGCGGCAGCCUUGUGUGGCGCGAUAGCGCCAACGUUCUCAACUAUGACACGCAAAGCGCGUGGUCCGUUGAAUGGAGUUUAUCAUG
GGAUCUUCUCGAUCUAACAAAAAAGUCAAAUCUGCCACAAACCUUGAGAGCAUCUUCGGAUGCAGAGGCGGAAGCCUUCGGUGGCGCGAUAGAGCCAACGUUCUCAACUAUGACAUGCAAAACGCGUGCUCCGUUGAAUGGAGUUUAUCAUG
GGAUCUUCUCGAUCUAACAAAAAAGAAAAAUCUGCCACAAAGGUUGAGAGCAUCUUCGGAUGCAGAGGCGGCAGCCUUCGGUGGCGCGAUACCGCCAACGCUCUCAACUAUGACACGCAAAACGCGGGCUCCGUUGAAUGGAGUUAAUCAUG
GGAUCUUCUCGAUCUAACAAAAAAGAAAAAUCUGCCACAAAGCUUGAGAGCAUCUUCGGGUGCAGAGGCGGCAGUCUUCGGUGGCGUGAUAGCGCCAACAUUCUCAACUAUGACAUGCAAAACGCGUGCUCCGUUGAAUGGAGUUUAACAUG
GGAUCUUCUCGAUCUAACAAAAAAGUCAAAUCUGCCACAAAGCUUGAGAGCAUCUUCGGAUGCAGAGGCGGCAGCCUUCGGUCGCGCGAUAGCGCCAACGUUCUCAACUAUGACACGCAAAACGCGUACUCCGGAGAAUGGAGUUCAUCAUG
GGAUCUUCUCGAUCUAACAAAAAAGUCAAAUCUGCCACAAAGCUUGAGAGCAUCAUCGGCUGCAGAGGCGGCAGCCUUCGGUGGCGCGAUAGCGCCAACGUUCUCAACUAUGACACGCAAAACGCGUGCUCCGUUGAAUGGAGUUUAUCAUG
GGAUCUUCUCGAUCUAACAAAAAAGAAAAAUCUGCCACAAAGCUUGAGAGCAUCUUCGGAUGCAGAGGCGGCAGCCUUCGGUGGCGAGAUAGAGCCAACGUUCUCAACUAUGACACGCAAAACGCGUGCUCCGUUGAAUGGACGUUAUCAUG
GGAUCUUCUCGAUCUAACAAAAAAGUCAAAUCUGCCACAAAGCUUGAGAGCAUCGUCGGAUGCAGAGGCGGCAGCCUUCGGUGGCGCUAUAGCACCAACGUUCUCAACUAUGACACGCAAAACAGAUGCUCCGUUGAAUGGUGUUUAUCAUG
GGAUCUUCUCGAUCUAACAAAAAAGAAAAAUCUGCCACAAAGCUUGAGAGCAUCUUCGGAUGCAGAGGCGGCAGCCUUCGGUGGAGCGAUAGCGCCAACGUUCUCAACUAUGACACGCAAAACGCGUGCUCCGUUGAAUGGAGUUUAUUAUG
GGAUCUUCUCGAUCUAACAAAAAAGAAAAAUCUGCCACAAAGCUUGAGAGCAUCUUCGGAUGCAGAGGCGGCAGCCUUUGGUGGCGCGAUAGCGCCAACGUUCUCAACUAUGACACGCAAAACGCGUGCUCCGUUGAAUGGAGUUUAUCAUG
GGAUCUUCUCGAUCUAACAAAAAAGUCAAAUCUGCCACAAAGCUUGAGAGCAUCUUCCGCUGCAGAGGCGGCAGCCUUCGGUGGCGCGAUAGCGCCAACAUUCUCAACUAUGACGCGCAAAACGCGUGCUCCGUUGAAUGGAGUUUAUCAUG
GGAUCUUCUCGAUCUAACAAAAAAGAAAAAUCUGCGACAAAGCUUGAGAGCAUCUUCGGAUGCAGAGGCGGCAGCCUUCGGUGGCGCGAUUGCGCCAAUGUUCUCAACUAUGACACGCAAAACGCGUGCUCCGUUGAAUGGAGUUUAUCAUG
GGAUCUUCUCGAUCUAACAAAAAAGAAAAAUCUGCCACAAAGAUUGAGAGCAUCUUCGGUUGCAGAGGCGGCAGCCUUCGGUGGCGAGAUAGCGCCAACGUUCUCAACUAUGACACGCAAAACGCGUGCUCCGUUGAAUGGAUUUUAUCAUG
GGAUCUUCUCGAUCUAACAAAAAAGAAAAAUCUGCCACAAAGCUUGAGAGCGUCUUCGGAUGCAGAGGCGGCAGCCUUCGGUGGCGCGAUAGCGACAACGUUCUCAACUAUGACACGCAAAACGCGUGGUCCGUUGAAUUGUGUUUAUCAUG
GGAUCUUCUCGAUCUAACAAAAAAGUCAAAGCUGCUACAAAGCUUGAGAGCAUCUUCGGAUGCAGAGGCGGCAGCCUUCGUUGGCGCGAUAGCGCCAACGUUCUCAACUAUGACACGCAAAACGCGUGCUCCGUUGAAUGGAGUUUAUGAUG
GGAUCUUCUCGAUCUAACAAAAAAGUCAAAUCUGCCACAAAGCAUGAGAGCAUCUUCGGAUGCAGAGGCGGCAGCCUUCGGUGGCGCGAUAGCGCCUACGUUCUCAACUAUGACACGCAAAACGCGUGCUCCGUUGAAUGGAGUUUAUCAUG
GGAUCUUCUCGAUCUAACAAAAAAGAAAAAUUUGCCACAAAGCUUGAGAGCAUCUUCGGAUGCAGAGGCGGCAGCCUUCGGUGGCGCGAUAGCGGCAACGUUCUCAACUAUGACCCGCAAAUCGCGUGAUACGUUGAAUGGAGUUUAUCAUG
GGAUCUUCUCGAUCUAACAAAAAAGAAAAAUCUGCCACAAAGCUUGAGAGCAUCUUCGGAUGCAGAGGCGGCAGCCUUCGGUGGCGCGAUAGCGCCAACGUUCUCAGCUAUGACACGCAAAACGCGUGCUCCGUUGAAUGGAGUUUAUCAUG
GGAUCUUCUCGAUCUAACAAAAAAGAAAAAUCUGCCACAAAGAUUGAGAGCAUCUUCGGAUGCAGUGGCGGCAGCCUUCGGUGGCGCGAUAGGGCCAACGUUCUCAACUAUGACACGCAAAACGCGUGCUCCGUUGAAUUAAGUUGAUCAUG
GGAUCUUCUCGAUCUAACAAAAAAGAAAAAUCUGCUACAAAGCUUGAGAGCAUCUUCGGAUGCAGAGGCGGCACGCUUCGGUGUCGCGAUAGGGCCCACGUUCUCAACUAUGACACACAAAACGCGUGCUCCGUUGAAUGGAGUUUAUCAUG
GGAUCUUCUCGAUCUAACAAAAAAGUCAAAUCUGCCACAAAGCUUGAGAGCAACUUCGGAUGCAGAGGCGGCAGCAUUCGGUGGCGCGAUAGCGCCAACGUUCUCAACUAUGACACGCAAAACUCGUGCUCCGUUGAAUGGAGUCUAUCAUG
GGAUCUUCUCGAUCUAACAAAAAAGUCAAAUCUGCCACAAAGCUUGAGACCAUCUUCGGAUGCAGAGGCGGCAGCCUUCGGUGGCGCGAUAGCGCCAACGUUCUAAACGAUGACACGCAAAACGCGUGUUCCGUUGAAUGGAGUUUAUCAUG
GGAUCUUCUCGAUCUAACAAAAAAGUCAAAUCGGCCAUACAGCUUGAGAGCAUCUACGGAUGCAGAGGCGGCAGCCUUCGGUAGCGCGGUAGCGCCGACGUUCUCAACUAUGACACGCAAAACGCGUGCUCCGUUGAAUGCAGUUUAUCAUG
GGAUCUUCUCGAUCUAACAAAAAAGAAAAAUCUGCCACAAUGCUUGAGAGCAUCUUCGGAUGCAGAGGCGGCAGCCUUCGGUGGCGCGAUAGCGCCAACGUUCUCAACUAUGACAUGCAAAACGCGUGCUCCGUUCAAUGGAGAUUAUCAUG
GGAUCUUCUCGAUCUAACAAAAAAGUCAAAUCUGCCACAAAGCUUGAGAGCAUCUUCGGAUGCAGAGGCGGCAGCCUUCGGUGGCGCUAUAGCGCCAACGUUCUCAACUAUGACACGGAAAACGCGUGCUCCGUUGAAUGGACUUUAUCAUG
GGAUCUUCUCGAUCUAACAAAAAAGAAAAAUCUGCCACAAGGCUUGAGAGCAUAUUCGGAUGCAGAGGCGGGAGCCUUCGGUGGCGCGAUAGCGCCAACGUUGUCAACUAUGACACGCAAAACGCGUGCUCCUUUGAAUGUAGAGUAUCAUG
GGAUCUUCUCGAUCUAACAAAAAAGUCAAAUCUGCCACAAACCUUGAGAUCAUCUUCGGAUGCAGAGGCGGCAGCCUUCGGUGGCGCGAUAGAGCCAACGUUCUCAACUAUGACUCCCAAAACGCGUGCUCCGUUGAAUGGAGUUUAUCAUG
GGAUCUUCUCGAUCUAACAAAAAAGUCAAAUCUGCCACAAAGCAUGAGAGCAUCUUCGGAUGCAGAGGCGGCAGCCUUCGGUGGCGCGAUAGAGCCAACGUUCUCAACUAUGACACGCAAAACGCGUGCUCCGUUGAAUGGCGUUUAUCAUG
GGAUCUUCUCGAUCUAACAAAAAAGUCAAAUCUGCCACAAAGCUUGAGAGCAUCUUCGCAAGCAGAGGCGGCAGGCUUCGGUGGCGCGAUAGCGCCAACGUUCUCAACUAUGACACGCAAAACGCGUGCUCCGUUGACUGGAGUUUAUCAUG

Polymerase ribozyme fitness (log ratio), -1.92:
GGAUCUUCUCGAUCUAACAAAAAAGUCAAAUCUGCCACAAAGCUUGAGAGCAUCUUCGGAUGCAGAGGCGGCAGCCUUCGGUGGCGCGAUAGCGCCAACGUUCUCAACUAUGACACGCAAAACGCGUGCUCCGUUGAAUGGAGUUGAUCAUG

Polymerase ribozyme fitness (log ratio), -1.66:
GGAUCUUCUCGAUCUAACAAAAAAGUCAAAUCUGCCACAAAGCUUGAGAGCAUCAUCGGAUGCAGAGGCGGCAGCCUUCGGUGGCGCGAUAGCGCCAACGUUCUCAACUAUGACACGCAAAACGCGUGCUCCGUUGAAUGGAGUUUAUCAUG

Polymerase ribozyme fitness (log ratio), -3.35:
GGAUCUUCUCGAUCUAACAAAAAAGUCAAAUCUGCCACAAAGCUUGAGAGCAUCGACGGAUGCAGAGGCGGCAGCCUUCGGUGGCGUGAUAGCGCUAACGUUCUCAACUAUGACACGCAAAACGCGUGCUCCGUUGAAUGGAGUUUAUCAUG

Source: the RNAGym collection of RNA variant scans (doi:10.1073/pnas.2313332121)
